T1: GPBP (Homo sapiens, UniProt Q9Y5P4)
T1 sequence (Q9Y5P4 1-624): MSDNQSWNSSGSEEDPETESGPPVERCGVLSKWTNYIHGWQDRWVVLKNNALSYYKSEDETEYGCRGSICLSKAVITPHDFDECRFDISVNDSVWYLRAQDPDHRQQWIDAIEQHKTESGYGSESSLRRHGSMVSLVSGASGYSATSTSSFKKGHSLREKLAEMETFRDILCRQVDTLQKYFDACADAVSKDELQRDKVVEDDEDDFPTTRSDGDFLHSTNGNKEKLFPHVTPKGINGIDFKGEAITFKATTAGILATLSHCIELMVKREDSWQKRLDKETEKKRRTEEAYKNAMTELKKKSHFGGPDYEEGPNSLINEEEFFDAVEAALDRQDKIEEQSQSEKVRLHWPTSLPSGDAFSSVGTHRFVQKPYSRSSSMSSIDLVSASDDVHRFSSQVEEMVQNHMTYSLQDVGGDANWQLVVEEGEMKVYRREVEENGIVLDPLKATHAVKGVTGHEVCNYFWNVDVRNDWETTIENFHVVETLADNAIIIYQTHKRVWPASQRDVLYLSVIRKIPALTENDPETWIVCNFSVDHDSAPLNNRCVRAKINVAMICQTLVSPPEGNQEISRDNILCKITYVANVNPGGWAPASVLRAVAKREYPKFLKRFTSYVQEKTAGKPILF


Assays:
[1] = target: T1, GPBP; assay: Inhibition of autophosphorylating activity of GPBP in vitro; format: biochemical; conditions: Pretswick Chemical Library selection (not shown)
[2] = tested on: doxorubicin-induced PF; assay: Doxorubicin-induced pulmonary fibrosis in mice; format: in vivo, C57BL/6 male mice
Experimental: For induction of PF with doxorubicin (Example 3), eight to ten weeks-old C57BL/6 male mice were purchased from Harlan Ibérica (Barcelona, Spain). For intratracheal (i.t.) instillation of doxorubicin (Sigma), mice were anesthetized by intraperitoneal (i.p.) injection of ketamine (50 μg/g of body weight), atropine sulphate (0.2 μg/g) and diazepam (4 μg/g). The trachea was localized by cutaneous incision in the anterior face of the neck and immobilized with forceps. Then 75 μl of doxorubicin chlorhydrate (1 mg/ml) were injected i.t. with a 30 G needle. Skin was then sutured with 3/0 silk. Mice were fed ad libitum with a normal chow diet and bled from the retro-orbital plexus at different time points after doxorubicin i.t. instillation. […] Mice instilled i.t. with doxorubicin were daily injected i.p. with either with 0.027, 0.08, 0.25 or 1.225 mg/kg of Pinacidil or with 0.11, 0.34 or 0.95 mg/kg of Myricetin. Mice were sacrificed twelve days after doxorubicin administration for gene expression analysis and anatomopathological studies of the lungs.
In PF assays, mouse lungs were intrabronchially perfused with 4% phosphate buffered formalin, then incubated in this fixative during 24 hours and finally embedded in paraffin. Tissue sections of 5 μm were stained with HE or with Masson's trichrome following conventional methods. For immunohistochemistry, paraffin-embedded lungs were stained with anti-GPBP-pep1 antibodies (3), which was detected with anti-chicken-HPR and DAB substrate (Dako Diagnósticos, S.A., Barcelona Spain). Specimens were counterstained with hematoxylin.
In assays of experimental pulmonary fibrosis, the expression of GPBP and of collagens type I and type IV mRNAs in the lung was analyzed by real-time quantitative PCR (RT-qPCR). One μg of the isolated RNA was used for cDNA synthesis with a RT-PCR kit (Amersham Pharmacia Biotech, Piscataway, N.J.), according to the manufacturer instructions. RT-qPCR was performed on a MX-3000P Stratagene instrument (Agilent Technologies, Inc., Santa Clara, Calif.) using specific primers SYBR Green PCR Master Mix (Applied Biosystems, Life Technologies Corporation). Primers used were: for α1(I) collagen gene, 5′ primer 5′-[…]-3′ (SEQ ID NO: 12) and 3′ primer 5′-[…]-3′ (SEQ ID NO: 13); for GPBP gene, 5′ primer 5′-[…]-3′ (SEQ ID NO: 14) and 3′ primer 5′-[…]-3′(SEQ ID NO: 15); for 18S gene, 5′ primer 5′-[…]-3′ (SEQ ID NO: 16) and 3′ primer 5′-[…]-3′ (SEQ ID NO: 17). Results (in triplicate) were normalized to the ribosomal 18S subunit expression and measured in parallel in each sample. Data were expressed as mean fold change relative to control samples.

[3] = tested on: A549 cells; assay: mRNA expression profile / KEGG pathway analysis of A549 cells cultured with rcGPBP-1; format: cell-based, human; conditions: 200 ng/mL
Experimental: Human A549 cells were cultured with or without 200 ng/mL of rcGPBP-1 for 3 hours. Then cells were lysed and total RNA was extracted with RNeasy™ Protect mini kit (Qiagen, Valencia, Calif.) according to manufacturer's recommendations. RNA was quantified by spectrometry with a NanoDrop™ ND1000 (NanoDrop Technologies, Wilminton, Del.) and quality confirmed by RNA 6000 Nano Bioanalyzer (Agilent Technologies, Palo Alto, Calif.) assay. Briefly, 150 ng of total RNA were used to produce Cyanine 3-CTP-labeled cRNA using the Low Input Quick™ Amp Labelling Kit One-Color (Agilent) according to the manufacturer's instructions. Following ‘One-Color Microarray-Based Gene Expression Analysis’ protocol Version 6.0 (Agilent), 1600 ng of labelled cRNA were hybridized with the Whole Human Genome Oligo Microarray Kit (Agilent) containing 41000+ unique human genes and transcripts. Arrays were scanned in an Agilent Microarray Scanner according to the manufacturer's instructions and data extracted using Agilent Feature Extraction Software 10.7.1 following the Agilent protocol GE1_107_Sep09, grid template 014850_D_F_20100430 and the QC Metric Set GE1_QCMT_Sep09. Analysis was performed in the Genomics Core Service of the Centro de Investigación Príncipe Felipe (Valencia, Spain) using an Agilent Microarray Scanner (Agilent Technologies, Palo Alto, Calif.).
Raw data files were background corrected using supplier's methodology and intensity signal standardized across arrays via quantile normalization algorithm. Differential gene expression assessment of all comparisons was carried out using limma moderated t-statistics. Conventional adjustment for multiple testing proposed by Benjamini Hochberg (5) was used to derive adjusted P-values. Also, for each of the comparisons performed in the study, gene set analysis was carried out using logistic regression models, and correcting for multiple testing as before (5). All analyses where carried out using Babelomics™ (6) web suite at the Bioinformatics Department of Centro de Investigación Príncipe Felipe. Array data have been deposited in GEO (accession number GSE32181).

[4] = A549 + rcGPBP-1 vs A549, 3 hours, P. adjusted 0.1576

Row | Molecule | autophosphorylating activity of GPBP [1] | doxorubicin-induced fibrosis (α1(I) collagen mRNA) ([2]; all doses tested (0.11, 0.34 or 0.95 mg/kg daily i.p.), day 12 (FIG. 11B)) | expression of pulmonary α1(I) collagen mRNA ([2]; daily dose of 0.08 mg/kg i.p., day 12, RT-qPCR (FIG. 11A)) | severity of doxorubicin-induced pulmonary fibrosis ([2]; daily dose of 0.08 mg/kg i.p., days 0-12, histology (FIG. 10)) | therapeutic effect (α1(I) collagen mRNA) ([2]; higher doses, 0.25 or 1.225 mg/kg/day (FIG. 11A)) | Log Odds Ratio, KEGG pathway hsa05322 SLE ([3]; A549 + rcGPBP-1 vs A549, 3 hours, P. adjusted 0.0003) | Log Odds Ratio, KEGG pathway hsa00380 Tryptophan metabolism [3, 4] | Log Odds Ratio, KEGG pathway hsa04120 Ubiquitin mediated proteolysis [3, 4] | Log Odds Ratio, KEGG pathway hsa04210 Apoptosis [3, 4] | Log Odds Ratio, KEGG pathway hsa05200 Pathways in cancer [3, 4] | Log Odds Ratio, KEGG pathway hsa05211 Renal cell carcinoma [3, 4] | Log Odds Ratio, KEGG pathway hsa05222 Small cell lung cancer [3, 4] | Log Odds Ratio, KEGG pathway hsa04510 Focal adhesion ([3]; A549 + rcGPBP-1 vs A549, 3 hours, P. adjusted 0.1579) | Log Odds Ratio, KEGG pathway hsa04914 Progesterone-mediated oocyte maturation ([3]; A549 + rcGPBP-1 vs A549, 3 hours, P. adjusted 0.1771) | Log Odds Ratio, KEGG pathway hsa05218 Melanoma ([3]; A549 + rcGPBP-1 vs A549, 3 hours, P. adjusted 0.3348) | changes in the expression of individual genes ([3]; A549 cells, microarray)
1 | O=c1c(O)c(-c2cc(O)c(O)c(O)c2)oc2cc(O)cc(O)c12 [myricetin] | inhibit the autophosphorylating activity of GPBP in vitro | efficient reduction | – | – | – | – | – | – | – | – | – | – | – | – | – | –
2 | CC(N/C(=N\C#N)Nc1ccncc1)C(C)(C)C (centres unmarked) [pinacidil] | inhibit the autophosphorylating activity of GPBP in vitro | – | significant reduced expression | sharply reduced | lost | – | – | – | – | – | – | – | – | – | – | –
3 | rcGPBP-1: Recombinant cGPBP-1 purified from culture media of a HEK 293 cell clone that constitutively secretes FLAG-GPBP-1 (protein) MSDNQSWNSSGSEEDPETESGPPVERCGVLSKWTNYIHGWQDRWVVLKNNALSYYKSEDETEYGCRGSICLSKAVITPHDFDECRFDISVNDSVWYLRAQDPDHRQQWIDAIEQHKTESGYGSESSLRRHGSMVSLVSGASGYSATSTSSFKKGHSLREKLAEMETFRDILCRQVDTLQKYFDACADAVSKDELQRDKVVEDDEDDFPTTRSDGDFLHSTNGNKEKLFPHVTPKGINGIDFKGEAITFKATTAGILATLSHCIELMVKREDSWQKRLDKETEKKRRTEEAYKNAMTELKKKSHFGGPDYEEGPNSLINEEEFFDAVEAALDRQDKIEEQSQSEKVRLHWPTSLPSGDAFSSVGTHRFVQKPYSRSSSMSSIDLVSASDDVHRFSSQVEEMVQNHMTYSLQDVGGDANWQLVVEEGEMKVYRREVEENGIVLDPLKATHAVKGVTGHEVCNYFWNVDVRNDWETTIENFHVVETLADNAIIIYQTHKRVWPASQRDVLYLSVIRKIPALTENDPETWIVCNFSVDHDSAPLNNRCVRAKINVAMICQTLVSPPEGNQEISRDNILCKITYVANVNPGGWAPASVLRAVAKREYPKFLKRFTSYVQEKTAGKPILF | – | – | – | – | – | 0.1444 | −0.1522 | −0.1130 | −0.1307 | −0.0843 | −0.1355 | −0.1253 | −0.0969 | −0.1223 | −0.1196 | No statistically significant changes
